Experimental data: the supplement of paper PMC9876800

Tested on: peptide library, one residue held at a place counted from the S/T acceptor
Test: relative phosphorylation of the sub-library (ratio to the mean residue at this position); higher = residue favoured
Details: human
In short: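 Spots on streptavidin membranes were phosphorimaged and quantified by densitometry to measure phosphorylation of biotinylated degenerate peptide sub-libraries by purified recombinant kinases, human or orthologue constructs. The reactions ran in 384-well plates for 90 min under kinase-specific conditions, with peptides at 50 μM and 50 μM ATP spiked with γ-32P-ATP. Relative sub-library phosphorylation is the ratio to the mean residue at that position.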

CDC7, construct: Full length, sequence (O00311 whole entry, looked up): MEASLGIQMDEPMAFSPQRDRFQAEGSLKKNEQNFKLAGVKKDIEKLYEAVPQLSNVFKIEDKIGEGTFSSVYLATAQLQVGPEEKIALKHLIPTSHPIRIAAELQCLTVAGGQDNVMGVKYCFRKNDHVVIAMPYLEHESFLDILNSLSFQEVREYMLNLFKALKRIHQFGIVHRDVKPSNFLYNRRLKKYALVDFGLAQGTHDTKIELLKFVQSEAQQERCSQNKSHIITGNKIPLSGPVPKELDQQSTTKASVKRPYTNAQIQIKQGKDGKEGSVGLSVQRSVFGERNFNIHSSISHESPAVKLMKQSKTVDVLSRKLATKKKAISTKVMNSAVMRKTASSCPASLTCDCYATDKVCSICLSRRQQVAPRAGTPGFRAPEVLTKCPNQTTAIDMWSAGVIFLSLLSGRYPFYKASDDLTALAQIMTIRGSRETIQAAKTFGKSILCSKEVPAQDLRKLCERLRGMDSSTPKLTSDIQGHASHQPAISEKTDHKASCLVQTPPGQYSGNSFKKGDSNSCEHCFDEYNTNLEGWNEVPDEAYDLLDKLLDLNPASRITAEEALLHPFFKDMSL
CAMK2A, construct: Full length, sequence (Q9UQM7 whole entry, looked up): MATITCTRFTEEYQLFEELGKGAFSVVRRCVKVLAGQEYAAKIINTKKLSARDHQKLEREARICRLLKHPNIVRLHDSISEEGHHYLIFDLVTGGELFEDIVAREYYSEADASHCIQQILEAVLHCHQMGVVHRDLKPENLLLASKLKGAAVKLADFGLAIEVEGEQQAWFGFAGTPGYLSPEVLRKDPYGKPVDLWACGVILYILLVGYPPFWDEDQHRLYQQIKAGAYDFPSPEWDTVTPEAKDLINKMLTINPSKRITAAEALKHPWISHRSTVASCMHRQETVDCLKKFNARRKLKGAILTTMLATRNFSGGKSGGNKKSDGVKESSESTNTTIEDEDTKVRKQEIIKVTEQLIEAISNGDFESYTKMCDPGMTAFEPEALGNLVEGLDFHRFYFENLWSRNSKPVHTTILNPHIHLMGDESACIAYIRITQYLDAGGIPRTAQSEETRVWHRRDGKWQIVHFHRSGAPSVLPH
DAPK3, construct: aa1-404, sequence (O43293 1-404, looked up): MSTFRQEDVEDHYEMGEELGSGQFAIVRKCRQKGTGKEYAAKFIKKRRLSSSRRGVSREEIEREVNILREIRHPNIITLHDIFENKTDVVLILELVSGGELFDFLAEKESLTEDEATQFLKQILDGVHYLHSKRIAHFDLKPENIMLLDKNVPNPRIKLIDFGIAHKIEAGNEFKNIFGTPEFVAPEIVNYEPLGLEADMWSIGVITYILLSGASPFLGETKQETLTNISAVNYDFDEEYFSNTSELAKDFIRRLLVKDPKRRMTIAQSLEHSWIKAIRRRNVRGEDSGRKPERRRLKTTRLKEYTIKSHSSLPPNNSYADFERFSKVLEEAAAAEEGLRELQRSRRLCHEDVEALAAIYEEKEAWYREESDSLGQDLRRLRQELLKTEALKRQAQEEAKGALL

DAPK3, construct: aa1-404 (from UniProt O43293)
relative phosphorylation
Details	at +1	at +2	at +3	at +4	at -1	at -2	at -3	at -4	at -5
A fixed	0.877	0.903	0.724	0.839	0.73	1.06	0.654	1	0.953
D fixed	1.61	0.84	0.753	0.791	0.823	0.448	0.447	0.844	0.79
E fixed	1.69	0.976	0.719	0.706	0.601	0.398	0.393	0.85	0.666
F fixed	0.52	0.932	1.02	1.14	0.667	0.338	0.412	0.759	0.583
G fixed	1.15	0.661	0.89	0.939	0.888	0.74	0.636	0.947	1.03
H fixed	0.825	1.01	1.04	1.51	1.29	1.24	0.835	1.1	1.17
I fixed	0.786	0.873	1.95	0.95	0.58	0.313	0.311	0.645	0.73
K fixed	0.595	0.789	0.685	0.712	1.48	1.33	2.51	1.65	1.59
L fixed	0.707	1.44	1.63	0.902	0.946	0.361	0.365	0.677	0.927
M fixed	1.15	1.5	1.08	0.984	0.943	0.415	0.422	0.871	0.912
N fixed	1.33	1.03	0.776	1	1.69	0.952	0.548	0.85	0.891
P fixed	0.309	0.9	0.78	0.885	1.06	0.406	0.703	0.854	0.959
Q fixed	2.62	1.25	0.804	0.797	1.15	0.989	0.769	1.04	0.942
R fixed	0.811	1.13	0.942	1.03	1.71	6.46	6.61	2.25	2.36
V fixed	0.807	0.827	1.41	0.927	0.698	0.397	0.294	0.844	0.699
W fixed	0.638	0.941	0.984	1.61	0.753	0.755	0.634	1.02	0.776
Y fixed	0.582	1.01	0.808	1.28	1	0.401	0.462	0.803	1.01
pThr fixed	1.83	1.01	0.854	1.04	0.695	0.53	0.633	0.84	0.973
pTyr fixed	1.19	1.02	1.35	1.08	0.957	0.623	0.605	0.929	1.1

CAMK2A, construct: Full length (from UniProt Q9UQM7)
relative phosphorylation
Details	at +1	at +2	at +3	at +4	at -1	at -2	at -3	at -4	at -5
A fixed	0.609	0.742	0.885	0.931	0.81	1.37	0.689	1.08	0.921
D fixed	0.816	5.44	2.48	1.96	1.65	0.692	0.352	0.607	0.452
E fixed	1.32	2.31	2.59	1.81	1.16	0.765	0.464	0.985	0.461
F fixed	2.06	0.382	0.664	0.797	0.567	0.62	0.53	0.867	1.36
G fixed	0.59	0.713	1.11	1.11	0.789	1.02	0.591	0.941	0.758
H fixed	0.848	0.976	1.06	1.1	1.05	0.992	0.978	1.08	1.05
I fixed	1.09	0.334	0.431	0.511	0.374	0.31	0.369	0.656	0.866
K fixed	0.719	0.694	0.803	0.792	1.36	1.21	2.13	1.42	0.793
L fixed	1.09	0.331	0.642	0.513	0.629	0.4	0.378	0.733	1.79
M fixed	1.42	0.387	0.515	0.568	0.753	1.07	0.517	0.96	1.06
N fixed	0.955	1.02	1.06	0.977	1.65	1.09	0.706	0.689	0.618
P fixed	0.594	0.73	1.01	1.55	1.88	0.659	1.13	1.43	1.25
Q fixed	1.41	0.696	0.973	1	1.37	2.96	0.902	1.04	0.747
R fixed	0.735	0.781	0.762	0.557	1.02	1.47	5.38	1.4	1.27
V fixed	1.22	0.44	0.614	0.664	0.527	0.389	0.379	0.776	0.867
W fixed	0.527	0.452	0.634	1.15	0.5	1.21	0.837	1.31	1.59
Y fixed	1	0.574	0.774	1.01	0.905	0.765	0.665	1.02	1.15
pThr fixed	1.89	1.82	2.45	4.37	0.489	0.486	0.496	0.738	0.605
pTyr fixed	1.53	4.53	2.49	2.88	1.8	0.503	0.514	0.804	0.813

CDC7, construct: Full length (from UniProt O00311)
relative phosphorylation
Details	at +1	at +2	at +3	at +4	at -1	at -2	at -3	at -4	at -5
A fixed	0.668	1.31	0.87	0.939	1.13	1.05	0.87	0.99	1.26
D fixed	2.92	0.854	2.1	0.91	0.674	1.19	1.06	1.27	0.99
E fixed	4.74	0.689	1.03	0.832	0.819	1.13	1.15	1.04	0.856
F fixed	0.577	0.712	1.35	1.04	1.04	0.895	0.91	0.949	0.988
G fixed	0.629	1.69	1.37	1.02	1.11	0.778	1	0.929	0.934
H fixed	0.513	0.887	1.02	1.08	1	0.787	0.836	0.977	1.09
I fixed	0.549	0.834	0.864	1.01	0.485	1.07	0.849	0.82	0.93
K fixed	0.444	0.596	0.561	0.769	1.31	0.72	0.802	0.909	0.954
L fixed	0.563	1.02	0.874	0.984	0.982	1.4	0.933	0.943	0.926
M fixed	0.765	0.893	0.676	0.932	1.18	1.11	0.894	0.921	0.95
N fixed	0.691	1.13	0.897	0.878	0.884	0.715	0.888	0.955	0.979
P fixed	0.459	1.84	0.945	1.15	1.01	1.64	1.06	1.11	0.914
Q fixed	1.31	0.756	0.694	0.782	0.781	0.749	0.848	0.866	0.77
R fixed	0.472	0.816	0.506	0.723	1.11	1.06	1.65	0.907	1.06
V fixed	0.612	0.737	0.761	0.894	0.671	0.988	0.856	0.935	0.943
W fixed	0.567	1.44	1.23	1.48	1.59	0.854	1.33	1.36	1.28
Y fixed	0.523	0.796	1.25	1.58	1.23	0.884	1.06	1.12	1.18
pThr fixed	2.38	0.801	1.41	1.34	0.583	1.12	1.46	1.13	0.831
pTyr fixed	0.631	0.537	0.792	1.15	0.684	0.717	1.06	0.937	0.844
